Test [1] deals with recombinant human IL-21R, extracellular domain fused to 8xHistidine tag (generated in house) (human, UniProt Q9HBE5 20-232). Nature of the test: SPR 37 C, Fc-captured fusion.
Test [2] concerns the target T1, Human IL-21R (Biolegend, Catalog No. 773104) (human, UniProt Q9HBE5 20-232, limits assumed).
T1 construct: Bought protein; also called IL-21 receptor
Put plainly: SPR 37 C.

The target of test [3] is T1, Human IL-21R (Biolegend, Catalog No. …). Nature of the test: SPR 37 C, Fc-captured fusion.
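For koff in this document: biacore SPR with anti-human IgG Fc surface and blank flow cell as reference, 10 min dissociation, double-referenced, 1:1 Langmuir fit with mass transport, triplicate runs.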
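For kon in this document: biacore SPR with anti-human IgG Fc surface and blank flow cell as reference, 10 min dissociation, double-referenced, 1:1 Langmuir fit with mass transport, triplicate runs.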

T1 sequence (Q9HBE5 20-232 limits assumed): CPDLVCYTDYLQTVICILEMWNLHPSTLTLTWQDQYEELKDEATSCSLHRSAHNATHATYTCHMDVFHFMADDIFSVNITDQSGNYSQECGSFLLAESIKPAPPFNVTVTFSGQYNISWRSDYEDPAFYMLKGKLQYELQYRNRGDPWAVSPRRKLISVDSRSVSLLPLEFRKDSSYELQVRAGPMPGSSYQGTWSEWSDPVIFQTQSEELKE
Sequence of recombinant human IL-21R, extracellular domain fused to 8xHistidine tag (generated in house) (Q9HBE5 other isoform, or with tags, fused parts or gaps limits assumed): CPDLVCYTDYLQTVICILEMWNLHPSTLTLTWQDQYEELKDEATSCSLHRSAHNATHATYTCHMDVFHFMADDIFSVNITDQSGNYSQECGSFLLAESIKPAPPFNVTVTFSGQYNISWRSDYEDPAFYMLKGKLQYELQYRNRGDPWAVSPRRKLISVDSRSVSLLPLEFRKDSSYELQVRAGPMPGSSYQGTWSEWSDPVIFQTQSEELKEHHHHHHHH

B1: xhCD8.1-hIL21 v2.7 (other)
chain: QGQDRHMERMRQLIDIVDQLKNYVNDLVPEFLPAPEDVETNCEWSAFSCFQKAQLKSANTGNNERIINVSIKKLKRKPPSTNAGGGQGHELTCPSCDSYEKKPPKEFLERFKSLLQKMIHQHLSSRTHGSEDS
VH: QVQLVQSGAEVKKPGSSVKVSCKASGGTFSSYAISWVRQAPGQGLEWMGGIIPGYATANYAQKFQGRVTITADESTSTAYMELSSLRSEDTAVYYCARDAAGIRLFADWGQGTLVTVSS
VL: DIQMTQSPSSLSASVGDRVTITCRASQSIYGALNWYQQKPGKAPKLLIYGASNLQSGVPSRFSGSGSGTDFTLTISSLQPEDFATYYCQSTYTAPWTFGGGTKVEIK
notes: hIgG1/kappa; IL-21 part on one heavy-chain C-terminus via (G4S)3 linker
The Kd is the constant that tells how readily two partners part at equilibrium. With B1, in test [1], the Kd was determined as 0.156 µM.

B2: xhCD8.1-hIL21 v2.56 (other)
chain: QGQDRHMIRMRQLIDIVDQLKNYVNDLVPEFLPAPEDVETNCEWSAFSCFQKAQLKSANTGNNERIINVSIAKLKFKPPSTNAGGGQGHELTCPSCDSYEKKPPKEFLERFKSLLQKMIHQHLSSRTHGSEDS
VH: QVQLVQSGAEVKKPGSSVKVSCKASGGTFSSYAISWVRQAPGQGLEWMGGIIPGYATANYAQKFQGRVTITADESTSTAYMELSSLRSEDTAVYYCARDAAGIRLFADWGQGTLVTVSS
VL: DIQMTQSPSSLSASVGDRVTITCRASQSIYGALNWYQQKPGKAPKLLIYGASNLQSGVPSRFSGSGSGTDFTLTISSLQPEDFATYYCQSTYTAPWTFGGGTKVEIK
notes: as for B1
Consider B2, for which, in test [1], the Kd was 0.156 µM.

B3: xhCD8.1-hIL21 v2.32 (other)
chain: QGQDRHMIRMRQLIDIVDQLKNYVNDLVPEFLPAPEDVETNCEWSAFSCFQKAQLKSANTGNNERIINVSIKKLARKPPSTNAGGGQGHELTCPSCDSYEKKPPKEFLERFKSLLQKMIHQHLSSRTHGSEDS
VH: QVQLVQSGAEVKKPGSSVKVSCKASGGTFSSYAISWVRQAPGQGLEWMGGIIPGYATANYAQKFQGRVTITADESTSTAYMELSSLRSEDTAVYYCARDAAGIRLFADWGQGTLVTVSS
VL: DIQMTQSPSSLSASVGDRVTITCRASQSIYGALNWYQQKPGKAPKLLIYGASNLQSGVPSRFSGSGSGTDFTLTISSLQPEDFATYYCQSTYTAPWTFGGGTKVEIK
notes: as for B1
For the molecule B3, the Kd in test [1] was 0.000236 µM.

B4: xhCD8.1-hIL21 v2.29 (other)
chain: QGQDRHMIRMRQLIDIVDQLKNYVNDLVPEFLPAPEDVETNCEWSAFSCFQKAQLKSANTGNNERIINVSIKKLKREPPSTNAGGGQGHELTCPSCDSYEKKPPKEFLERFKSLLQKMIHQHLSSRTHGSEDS
VH: QVQLVQSGAEVKKPGSSVKVSCKASGGTFSSYAISWVRQAPGQGLEWMGGIIPGYATANYAQKFQGRVTITADESTSTAYMELSSLRSEDTAVYYCARDAAGIRLFADWGQGTLVTVSS
VL: DIQMTQSPSSLSASVGDRVTITCRASQSIYGALNWYQQKPGKAPKLLIYGASNLQSGVPSRFSGSGSGTDFTLTISSLQPEDFATYYCQSTYTAPWTFGGGTKVEIK
notes: as for B1
B4: in test [1], the Kd is 0.0028 µM.

B5: xhCD8.1-hIL21 v2.30 (other)
chain: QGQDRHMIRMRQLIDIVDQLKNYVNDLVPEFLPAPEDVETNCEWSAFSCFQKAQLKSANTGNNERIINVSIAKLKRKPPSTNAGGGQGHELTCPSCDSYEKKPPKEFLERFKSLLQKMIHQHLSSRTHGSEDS
VH: QVQLVQSGAEVKKPGSSVKVSCKASGGTFSSYAISWVRQAPGQGLEWMGGIIPGYATANYAQKFQGRVTITADESTSTAYMELSSLRSEDTAVYYCARDAAGIRLFADWGQGTLVTVSS
VL: DIQMTQSPSSLSASVGDRVTITCRASQSIYGALNWYQQKPGKAPKLLIYGASNLQSGVPSRFSGSGSGTDFTLTISSLQPEDFATYYCQSTYTAPWTFGGGTKVEIK
notes: as for B1
On to B5, for which the Kd in test [1] worked out at 0.000419 µM.

B6: xhCD8.1-hIL21 v2.36 (other)
chain: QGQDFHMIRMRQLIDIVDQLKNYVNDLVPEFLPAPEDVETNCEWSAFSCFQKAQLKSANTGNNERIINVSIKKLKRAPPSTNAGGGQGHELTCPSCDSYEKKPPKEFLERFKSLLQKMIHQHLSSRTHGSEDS
VH: QVQLVQSGAEVKKPGSSVKVSCKASGGTFSSYAISWVRQAPGQGLEWMGGIIPGYATANYAQKFQGRVTITADESTSTAYMELSSLRSEDTAVYYCARDAAGIRLFADWGQGTLVTVSS
VL: DIQMTQSPSSLSASVGDRVTITCRASQSIYGALNWYQQKPGKAPKLLIYGASNLQSGVPSRFSGSGSGTDFTLTISSLQPEDFATYYCQSTYTAPWTFGGGTKVEIK
notes: as for B1
For the molecule B6, in test [1], the Kd was determined as 0.125 µM.

B7: xhCD8.1-hIL21 v2.9 (other)
chain: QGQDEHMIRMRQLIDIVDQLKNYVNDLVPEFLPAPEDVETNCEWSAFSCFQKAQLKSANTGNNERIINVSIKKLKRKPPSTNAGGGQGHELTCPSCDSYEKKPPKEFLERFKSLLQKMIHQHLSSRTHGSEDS
VH: QVQLVQSGAEVKKPGSSVKVSCKASGGTFSSYAISWVRQAPGQGLEWMGGIIPGYATANYAQKFQGRVTITADESTSTAYMELSSLRSEDTAVYYCARDAAGIRLFADWGQGTLVTVSS
VL: DIQMTQSPSSLSASVGDRVTITCRASQSIYGALNWYQQKPGKAPKLLIYGASNLQSGVPSRFSGSGSGTDFTLTISSLQPEDFATYYCQSTYTAPWTFGGGTKVEIK
notes: as for B1
Take B7: in test [1], the Kd worked out at 0.42 µM.

B8: xhCD8.1-hIL21 v2.28 (other)
chain: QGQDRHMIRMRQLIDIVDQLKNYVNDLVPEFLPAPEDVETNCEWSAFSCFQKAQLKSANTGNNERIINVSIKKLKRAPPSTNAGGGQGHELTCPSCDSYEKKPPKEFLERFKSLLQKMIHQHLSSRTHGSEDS
VH: QVQLVQSGAEVKKPGSSVKVSCKASGGTFSSYAISWVRQAPGQGLEWMGGIIPGYATANYAQKFQGRVTITADESTSTAYMELSSLRSEDTAVYYCARDAAGIRLFADWGQGTLVTVSS
VL: DIQMTQSPSSLSASVGDRVTITCRASQSIYGALNWYQQKPGKAPKLLIYGASNLQSGVPSRFSGSGSGTDFTLTISSLQPEDFATYYCQSTYTAPWTFGGGTKVEIK
notes: as for B1
In the case of B8, the Kd in test [1] came to 0.000693 µM.

B9: xhCD8.1-hIL21 v2.38 (other)
chain: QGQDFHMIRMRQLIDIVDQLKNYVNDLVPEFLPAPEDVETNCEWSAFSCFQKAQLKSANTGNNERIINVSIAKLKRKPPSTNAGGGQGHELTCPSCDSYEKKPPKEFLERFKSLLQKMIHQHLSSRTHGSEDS
VH: QVQLVQSGAEVKKPGSSVKVSCKASGGTFSSYAISWVRQAPGQGLEWMGGIIPGYATANYAQKFQGRVTITADESTSTAYMELSSLRSEDTAVYYCARDAAGIRLFADWGQGTLVTVSS
VL: DIQMTQSPSSLSASVGDRVTITCRASQSIYGALNWYQQKPGKAPKLLIYGASNLQSGVPSRFSGSGSGTDFTLTISSLQPEDFATYYCQSTYTAPWTFGGGTKVEIK
notes: as for B1
Regarding B9, the Kd in test [1] amounted to 0.0669 µM.

B10: xhCD8.1-hIL21 v2.33 (other)
chain: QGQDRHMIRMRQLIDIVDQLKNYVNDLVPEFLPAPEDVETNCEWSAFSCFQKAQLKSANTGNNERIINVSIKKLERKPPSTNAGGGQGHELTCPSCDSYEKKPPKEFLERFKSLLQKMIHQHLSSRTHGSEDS
VH: QVQLVQSGAEVKKPGSSVKVSCKASGGTFSSYAISWVRQAPGQGLEWMGGIIPGYATANYAQKFQGRVTITADESTSTAYMELSSLRSEDTAVYYCARDAAGIRLFADWGQGTLVTVSS
VL: DIQMTQSPSSLSASVGDRVTITCRASQSIYGALNWYQQKPGKAPKLLIYGASNLQSGVPSRFSGSGSGTDFTLTISSLQPEDFATYYCQSTYTAPWTFGGGTKVEIK
notes: as for B1
As for B10, the Kd in test [1] came out at 0.0013 µM.

B11: xhCD8.1-hIL21 v2.41 (other)
chain: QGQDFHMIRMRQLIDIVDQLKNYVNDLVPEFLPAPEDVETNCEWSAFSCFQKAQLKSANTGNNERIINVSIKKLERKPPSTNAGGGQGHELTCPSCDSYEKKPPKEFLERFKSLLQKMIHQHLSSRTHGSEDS
VH: QVQLVQSGAEVKKPGSSVKVSCKASGGTFSSYAISWVRQAPGQGLEWMGGIIPGYATANYAQKFQGRVTITADESTSTAYMELSSLRSEDTAVYYCARDAAGIRLFADWGQGTLVTVSS
VL: DIQMTQSPSSLSASVGDRVTITCRASQSIYGALNWYQQKPGKAPKLLIYGASNLQSGVPSRFSGSGSGTDFTLTISSLQPEDFATYYCQSTYTAPWTFGGGTKVEIK
notes: as for B1
As for B11, in test [1], the Kd amounted to 0.104 µM.

B12: xhCD8.1-hIL21 v2.34 (other)
chain: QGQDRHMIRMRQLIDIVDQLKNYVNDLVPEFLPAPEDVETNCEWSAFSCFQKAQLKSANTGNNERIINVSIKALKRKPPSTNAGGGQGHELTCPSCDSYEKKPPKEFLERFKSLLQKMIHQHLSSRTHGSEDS
VH: QVQLVQSGAEVKKPGSSVKVSCKASGGTFSSYAISWVRQAPGQGLEWMGGIIPGYATANYAQKFQGRVTITADESTSTAYMELSSLRSEDTAVYYCARDAAGIRLFADWGQGTLVTVSS
VL: DIQMTQSPSSLSASVGDRVTITCRASQSIYGALNWYQQKPGKAPKLLIYGASNLQSGVPSRFSGSGSGTDFTLTISSLQPEDFATYYCQSTYTAPWTFGGGTKVEIK
notes: as for B1
On to B12, for which the Kd in test [1] turned out to be 0.002 µM.

B13: xhCD8.1-hIL21 v2.58 (other)
chain: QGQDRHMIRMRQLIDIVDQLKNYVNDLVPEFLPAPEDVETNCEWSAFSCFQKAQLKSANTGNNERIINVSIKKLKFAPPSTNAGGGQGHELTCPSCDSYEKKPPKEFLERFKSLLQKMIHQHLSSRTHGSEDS
VH: QVQLVQSGAEVKKPGSSVKVSCKASGGTFSSYAISWVRQAPGQGLEWMGGIIPGYATANYAQKFQGRVTITADESTSTAYMELSSLRSEDTAVYYCARDAAGIRLFADWGQGTLVTVSS
VL: DIQMTQSPSSLSASVGDRVTITCRASQSIYGALNWYQQKPGKAPKLLIYGASNLQSGVPSRFSGSGSGTDFTLTISSLQPEDFATYYCQSTYTAPWTFGGGTKVEIK
notes: as for B1
As for B13, in test [1], the Kd amounted to 0.42 µM.

B14: xhCD8.1-hIL21 v2.40 (other)
chain: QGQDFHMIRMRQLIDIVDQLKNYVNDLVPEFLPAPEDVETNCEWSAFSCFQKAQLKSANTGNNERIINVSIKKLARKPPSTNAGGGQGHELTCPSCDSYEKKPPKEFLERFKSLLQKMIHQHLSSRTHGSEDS
VH: QVQLVQSGAEVKKPGSSVKVSCKASGGTFSSYAISWVRQAPGQGLEWMGGIIPGYATANYAQKFQGRVTITADESTSTAYMELSSLRSEDTAVYYCARDAAGIRLFADWGQGTLVTVSS
VL: DIQMTQSPSSLSASVGDRVTITCRASQSIYGALNWYQQKPGKAPKLLIYGASNLQSGVPSRFSGSGSGTDFTLTISSLQPEDFATYYCQSTYTAPWTFGGGTKVEIK
notes: as for B1
Regarding B14, the Kd in test [1] came out at 0.0547 µM.

B15: xhCD8.1-hIL21 v2.39 (other)
chain: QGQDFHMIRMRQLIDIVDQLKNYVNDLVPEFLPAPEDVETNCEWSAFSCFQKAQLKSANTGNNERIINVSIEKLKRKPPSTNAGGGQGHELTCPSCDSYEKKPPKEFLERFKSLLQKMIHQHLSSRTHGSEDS
VH: QVQLVQSGAEVKKPGSSVKVSCKASGGTFSSYAISWVRQAPGQGLEWMGGIIPGYATANYAQKFQGRVTITADESTSTAYMELSSLRSEDTAVYYCARDAAGIRLFADWGQGTLVTVSS
VL: DIQMTQSPSSLSASVGDRVTITCRASQSIYGALNWYQQKPGKAPKLLIYGASNLQSGVPSRFSGSGSGTDFTLTISSLQPEDFATYYCQSTYTAPWTFGGGTKVEIK
notes: as for B1
For B15, the Kd in test [1] is 0.614 µM.

B16: xhCD8.1-hIL21 v2.37 (other)
chain: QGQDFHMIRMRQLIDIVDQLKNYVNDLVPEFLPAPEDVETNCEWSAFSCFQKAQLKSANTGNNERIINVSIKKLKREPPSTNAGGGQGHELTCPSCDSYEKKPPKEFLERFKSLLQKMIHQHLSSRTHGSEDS
VH: QVQLVQSGAEVKKPGSSVKVSCKASGGTFSSYAISWVRQAPGQGLEWMGGIIPGYATANYAQKFQGRVTITADESTSTAYMELSSLRSEDTAVYYCARDAAGIRLFADWGQGTLVTVSS
VL: DIQMTQSPSSLSASVGDRVTITCRASQSIYGALNWYQQKPGKAPKLLIYGASNLQSGVPSRFSGSGSGTDFTLTISSLQPEDFATYYCQSTYTAPWTFGGGTKVEIK
notes: as for B1
As for B16, the Kd in test [1] was found to be 0.601 µM.

B17: xhCD8.1-hIL21 v2.31 (other)
chain: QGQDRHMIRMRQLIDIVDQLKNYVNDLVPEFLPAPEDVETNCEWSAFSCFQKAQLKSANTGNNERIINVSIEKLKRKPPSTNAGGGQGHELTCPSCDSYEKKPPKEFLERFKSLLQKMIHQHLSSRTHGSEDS
VH: QVQLVQSGAEVKKPGSSVKVSCKASGGTFSSYAISWVRQAPGQGLEWMGGIIPGYATANYAQKFQGRVTITADESTSTAYMELSSLRSEDTAVYYCARDAAGIRLFADWGQGTLVTVSS
VL: DIQMTQSPSSLSASVGDRVTITCRASQSIYGALNWYQQKPGKAPKLLIYGASNLQSGVPSRFSGSGSGTDFTLTISSLQPEDFATYYCQSTYTAPWTFGGGTKVEIK
notes: as for B1
Regarding B17, the Kd in test [1] was found to be 0.0034 µM.

B18: xhCD8-hIL21 v2 (other)
chain: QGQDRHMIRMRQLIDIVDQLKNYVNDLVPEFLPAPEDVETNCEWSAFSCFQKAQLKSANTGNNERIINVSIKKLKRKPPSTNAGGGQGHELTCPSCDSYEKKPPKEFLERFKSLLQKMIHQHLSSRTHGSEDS
VH: QVHLQQSGPELVKPGASVKMSCKTSGYTFTKYTMHWVKQGHEESLEWIGHFNPNNDETKYNQKFTGKATLTVDKSSTTAYMELRSLTSDDSALYYCARDGLGLRLFADWGQGTLITVSA
VL: DIQMTQSPASLSASVGETVTITCGASENIYGALNWYQRKQGKSPQLLIFGATNLADGVSSRFSGSGSDRQYSLKISSLHPDDVATYYCQNILDTPWTFGGGTKLEIK
notes: hIgG1/kappa; IL-21 part on one heavy-chain C-terminus via (G4S)3 linker; also called exemplary IL-21 polypeptide 2
The term koff denotes a measure of how fast the partners let go of each other. A lower koff goes with a long-lived complex. The kon is a measure of how fast the partners come together. Lower therefore signals slow association. Consider B18, for which the “fold difference in IL-21R affinity against wild type IL-21” value (shortened to “fold difference in IL-21R affinity”) in test [2] was at most 2 fold. In test [3], this molecule yielded a Kd of 0.000122 µM, a koff of 0.0011 s⁻¹ and a kon of 8.9e+06 M⁻¹ s⁻¹.

B19: xhCD8-hIL21 v1 (other)
chain: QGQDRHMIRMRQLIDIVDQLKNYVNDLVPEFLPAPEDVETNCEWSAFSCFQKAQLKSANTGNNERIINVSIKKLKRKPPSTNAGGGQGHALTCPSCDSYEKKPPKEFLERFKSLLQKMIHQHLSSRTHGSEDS
VH: QVHLQQSGPELVKPGASVKMSCKTSGYTFTKYTMHWVKQGHEESLEWIGHFNPNNDETKYNQKFTGKATLTVDKSSTTAYMELRSLTSDDSALYYCARDGLGLRLFADWGQGTLITVSA
VL: DIQMTQSPASLSASVGETVTITCGASENIYGALNWYQRKQGKSPQLLIFGATNLADGVSSRFSGSGSDRQYSLKISSLHPDDVATYYCQNILDTPWTFGGGTKLEIK
notes: hIgG1/kappa; also called exemplary IL-21 polypeptide 1
Take B19: the “fold difference in IL-21R affinity” value in test [2] was at most 2 fold. In test [3], this molecule displayed a Kd of 0.000117 µM, a koff of 0.00097 s⁻¹ and a kon of 8.3e+06 M⁻¹ s⁻¹.

B20: xhCD8-hIL21 v6 (other)
chain: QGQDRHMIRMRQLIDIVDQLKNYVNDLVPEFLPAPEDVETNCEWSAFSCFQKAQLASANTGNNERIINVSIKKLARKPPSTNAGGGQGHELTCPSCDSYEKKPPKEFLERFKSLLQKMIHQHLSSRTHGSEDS
VH: QVHLQQSGPELVKPGASVKMSCKTSGYTFTKYTMHWVKQGHEESLEWIGHFNPNNDETKYNQKFTGKATLTVDKSSTTAYMELRSLTSDDSALYYCARDGLGLRLFADWGQGTLITVSA
VL: DIQMTQSPASLSASVGETVTITCGASENIYGALNWYQRKQGKSPQLLIFGATNLADGVSSRFSGSGSDRQYSLKISSLHPDDVATYYCQNILDTPWTFGGGTKLEIK
notes: hIgG1/kappa; IL-21 part on one heavy-chain C-terminus via (G4S)3 linker; also called exemplary IL-21 polypeptide 6
For the molecule B20, the “fold difference in IL-21R affinity” value in test [2] is around 3 fold. In test [3], this molecule came in with a Kd of 0.000478 µM, an off-rate constant (koff) of 0.0025 s⁻¹ and a kon of 5.2e+06 M⁻¹ s⁻¹.

(Values after patent US20230357343A1 (ASHER BIOTHERAPEUTICS, published 2023).)
